B1: B7-1 expressed on transfected COS cells (ligand)
chain: VIHVTKEVKEVATLSCGHNVSVEELAQTRIYWQKEKKMVLTMMSGDMNIWPEYKNRTIFDITNNLSIVILALRPSDEGTYECVVLKYEKDAFKREHLAEVTLSVKADFPTPSISDFEIPTSNIRRIICSTSGGFPEPHLSWLENGEELNAINTTVSQDPETELYAVSSKLDFNMTTNHSFMCLIKYGHLRVNQTFNWNTTKQEHFPDNLLPSWAITLISVNGIFVICCLTYCFAPRCRERRRNERLRRESVRPV
notes: whole, on cells; also called CD80

Legend:
[1] = target: PD-1 on T cells (species not stated); test: cell-based or functional assay
[2] = target: T1, human PD-1-Fc (human Ig gamma 1) (human, UniProt P01857 99-330 = IgG part); test: flow cytometry on B7-1-transfected COS cells, anti-IgG-PE
T1 construct: domain: hinge-CH2-CH3; also called human PD-1 linked to IgG1
T1 sequence (P01857 other isoform, or with tags, fused parts or gaps limits assumed): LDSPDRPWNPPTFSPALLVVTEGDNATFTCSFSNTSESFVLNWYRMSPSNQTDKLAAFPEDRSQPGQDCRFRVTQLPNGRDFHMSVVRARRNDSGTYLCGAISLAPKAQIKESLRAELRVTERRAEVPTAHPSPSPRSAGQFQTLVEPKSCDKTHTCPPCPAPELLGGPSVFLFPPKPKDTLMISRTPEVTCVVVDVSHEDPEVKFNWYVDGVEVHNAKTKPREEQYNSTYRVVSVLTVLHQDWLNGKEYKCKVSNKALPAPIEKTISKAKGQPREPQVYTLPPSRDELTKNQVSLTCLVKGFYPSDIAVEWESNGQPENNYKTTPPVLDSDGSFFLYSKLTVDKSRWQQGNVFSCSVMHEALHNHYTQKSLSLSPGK
Description: COS cells were transfected with either B7-4M or B7-1 using LipofectAMINE transfection reagent. […] The cells were then analyzed by flow cytometry.

[3] = target: T2, human PD-1 fused to murine Ig gamma2a (human; murine, UniProt P01863 98-330 = IgG part, limits assumed); test: flow cytometry on CHO-IA^d cells, hPD-1-Ig developed with goat anti-murine IgG2a-PE
T2 construct: domain: hinge-CH2-CH3; The Fc mutations are not specified; also called human PD-1 gamma 2a fusion protein; hPD-1-Ig
T2 sequence (P01863 other isoform, or with tags, fused parts or gaps limits assumed): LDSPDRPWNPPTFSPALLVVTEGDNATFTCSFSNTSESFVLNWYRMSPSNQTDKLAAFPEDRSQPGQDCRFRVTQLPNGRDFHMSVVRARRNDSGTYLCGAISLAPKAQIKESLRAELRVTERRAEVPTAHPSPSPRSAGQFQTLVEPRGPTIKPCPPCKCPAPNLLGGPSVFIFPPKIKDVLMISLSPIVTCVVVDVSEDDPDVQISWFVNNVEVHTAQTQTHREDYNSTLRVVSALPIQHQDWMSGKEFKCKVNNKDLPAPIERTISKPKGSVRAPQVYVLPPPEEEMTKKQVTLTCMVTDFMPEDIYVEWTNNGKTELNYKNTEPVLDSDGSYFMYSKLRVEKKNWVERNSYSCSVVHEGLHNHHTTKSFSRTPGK
Description: In addition, cells were stained separately with 5 μg/ml anti-IA^d-PE or B7.2-PE (Pharmingen, San Diego, Calif.). Following each step, cells were washed three times with PBS/1% BSA/0.02% sodium azide. After the final incubation, cells were fixed with 1% paraformaldehyde. Ten thousand events were analyzed on a FACSCalibar (Becton Dickinson, Mountain View, Calif.). All isotype controls were obtained from Pharmingen.

[4] = target: T3, human B7-4M expressed on transfected COS or CHO cells (human, UniProt Q9NZQ7 19-290); test: flow cytometry on CHO cells expressing human B7-4
T3 construct: Full-length B7-4M cDNA expressed on COS or CHO cells; also called PD-L1
T3 sequence (Q9NZQ7 19-290): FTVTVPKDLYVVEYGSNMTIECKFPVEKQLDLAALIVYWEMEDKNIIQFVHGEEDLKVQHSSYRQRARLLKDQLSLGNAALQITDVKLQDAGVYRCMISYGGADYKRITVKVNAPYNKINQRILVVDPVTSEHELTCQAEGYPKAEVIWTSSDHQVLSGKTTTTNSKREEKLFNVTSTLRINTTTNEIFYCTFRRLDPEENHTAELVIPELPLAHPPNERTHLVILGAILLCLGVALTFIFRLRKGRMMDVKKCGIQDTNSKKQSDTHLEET

[5] = target: T4, murine B7-4 expressed on transfected cells (murine, UniProt Q9EP73 19-290); test: flow cytometry on CHO cells expressing murine B7-4
T4 construct: also called mouse B7-4; mB7-4
T4 sequence (Q9EP73 19-290 limits assumed): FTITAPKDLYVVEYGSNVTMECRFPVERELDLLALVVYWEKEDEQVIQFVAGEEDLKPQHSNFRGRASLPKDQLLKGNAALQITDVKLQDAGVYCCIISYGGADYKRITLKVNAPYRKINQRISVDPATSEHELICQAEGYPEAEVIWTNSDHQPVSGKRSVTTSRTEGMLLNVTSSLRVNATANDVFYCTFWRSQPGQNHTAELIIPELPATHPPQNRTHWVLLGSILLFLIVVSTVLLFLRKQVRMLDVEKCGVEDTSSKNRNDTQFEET

[6] = target: T1, human PD-1-Fc (human Ig gamma 1); test: BIACORE, PD-1-Fc immobilized
[7] = target: T1, human PD-1-Fc (human Ig gamma 1); test: in situ staining of transfected COS cell monolayers
Description: In addition, an in situ assay of transfected COS cell monolayers was performed. […] Binding was visualized with chromogenic substrates 5-bromo-4-chloro-3-indolyl phosphate and nitro blue tetrazolium and light microscopy.

[8] = target: B1; test: flow cytometry (FITC) on B7-1-transfected COS cells
[9] = target: T3, human B7-4M expressed on transfected …; test: flow cytometry on B7-4M-transfected COS cells

“B7-4.Fc / PDL1.Ig fusion protein (species not stated) (Fc fusion)” gave a % CD69+ T cells at 24 hours, anti-CD3/B7-4.Fc (anti-CD3 alone 26%) [1] of 26%, a % CD69+ T cells at 48 hours, anti-CD3/B7-4.Fc (anti-CD3 alone 46%) [1] of 36% and a % CD69+ T cells at 72 hours, anti-CD3/B7-4.Fc (anti-CD3 alone 63%) [1] of 42%. The % IL-2R+ (CD25) T cells at 24 hours, anti-CD3/B7-4.Fc (anti-CD3 alone 17%) [1] was 12%, the % IL-2R+ (CD25) T cells at 48 hours, anti-CD3/B7-4.Fc (anti-CD3 alone 29%) [1] was 17% and the % IL-2R+ (CD25) T cells at 72 hours, anti-CD3/B7-4.Fc (anti-CD3 alone 54%) [1] was 15%. For the same molecule, the % apoptotic T cells (propidium iodide and annexin positive) at 24 hours, anti-CD3/B7-4.Fc (anti-CD3 alone 3%) [1] was 3%, the % apoptotic T cells at 48 hours, anti-CD3/B7-4.Fc (anti-CD3 alone 5%) [1] was 4% and the % apoptotic T cells at 72 hours, anti-CD3/B7-4.Fc (anti-CD3 alone 10%) [1] was 12%.

B1: no binding [2].

B2: IA^d expressed on CHO transfectants (CHO-IA^d) (other)
alpha: EDDIEADHVGFYGTTVYQSPGDIGQYTHEFDGDELFYVDLDKKKTVWRLPEFGQLILFEPQGGLQNIAAEKHNLGILTKRSNFTPATNEAPQATVFPKSPVLLGQPNTLICFVDNIFPPVINITWLRNSKSVTDGVYETSFLVNRDHSFHKLSYLTFIPSDDDIYDCKVEHWGLEEPVLKHWEPEIPAPMSELTETVVCALGLSVGLVGIVVGTIFIIQGLRSGGTSRHPGPL
beta: GNSERHFVVQFKGECYYTNGTQRIRLVTRYIYNREEYVRYDSDVGEYRAVTELGRPDAEYWNSQPEILERTRAEVDTACRHNYEGPETSTSLRRLEQPNVAISLSRTEALNHHNTLVCSVTDFYPAKIKVRWFRNGQEETVGVSSTQLIRNGDWTFQVLVMLEMTPHQGEVYTCHVEHPSLKSPITVEWRAQSESARSKMLSGIGGCVLGVIFLGLGLFIRHRSQKGPRGPPPAGLLQ
notes: present on CHO-IA^d, CHO-IA^d/B7.2 and CHO-IA^d/B7.2/B7-4; copies: 1 + 1
B2: no binding (tested: 5 ug/ml) [3].

B3: murine PD-1-Fc (Fc fusion, UniProt Q02242 25-167, looked up)
chain: LEVPNGPWRSLTFYPAWLTVSEGANATFTCSLSNWSEDLMLNWNRLSPSNQTEKQAAFCNGLSQPVQDARFQIIQLPNRHDFHMNILDTRRNDSGIYLCGAISLHPKAKIEESPGAELVVTERILETSTRYPSPSPKPEGRFQ
notes: also called murine PD-1.Ig; mouse PD-1; not shown: Fc portion
B3: binds [4]; binds [5].

B4: soluble form of human B7-1 (ligand)
chain: VIHVTKEVKEVATLSCGHNVSVEELAQTRIYWQKEKKMVLTMMSGDMNIWPEYKNRTIFDITNNLSIVILALRPSDEGTYECVVLKYEKDAFKREHLAEVTLSVKADFPTPSISDFEIPTSNIRRIICSTSGGFPEPHLSWLENGEELNAINTTVSQDPETELYAVSSKLDFNMTTNHSFMCLIKYGHLRVNQTFNWNTTKQEHFPDN
notes: also called soluble B7-1
B4: no binding [6].

B5: soluble form of human B7-2 (ligand)
chain: APLKIQAYFNETADLPCQFANSQNQSLSELVVFWQDQENLVLNEVYLGKEKFDSVHSKYMGRTSFDSDSWTLRLHNLQIKDKGLYQCIIHHKKPTGMIRIHQMNSELSVLANFSQPEIVPISNITENVYINLTCSSIHGYPEPKKMSVLLRTKNSTIEYDGVMQKSQDNVTELYDVSISLSVSFPDVTSNMTIFCILETDKTRLLSSPFSIELEDPQPPPDHIP
notes: also called soluble B7-2
B5: no binding [6].

B6: B7-2 expressed on transfected COS cells (ligand)
chain: APLKIQAYFNETADLPCQFANSQNQSLSELVVFWQDQENLVLNEVYLGKEKFDSVHSKYMGRTSFDSDSWTLRLHNLQIKDKGLYQCIIHHKKPTGMIRIHQMNSELSVLANFSQPEIVPISNITENVYINLTCSSIHGYPEPKKMSVLLRTKNSTIEYDGVMQKSQDNVTELYDVSISLSVSFPDVTSNMTIFCILETDKTRLLSSPFSIELEDPQPPPDHIPWITAVLPTVIICVMVFCLILWKWKKKKRPRNSYKCGTNTMEREESEQTKKREKIHIPERSDEAQRVFKSSKTSSCDKSDTCF
notes: whole, on cells; also called CD86
B6: no binding [7].

B7: murine ICOS-his fusion protein (receptor, UniProt Q9WVS0 21-144, looked up)
chain: EINGSADHRMFSFHNGGVQISCKYPETVQQLKMRLFREREVLCELTKTKGSGNAVSIKNPMLCLYHLSNNSVSFFLNNPDSSQGSYYFCSLSIFDPPPFQERNLSGGYLHIYESQLCCQLKLWL
notes: not shown: his tag
B7: no binding [8]; no binding [9].

Source: patent publication US20030044768A1 (Dana-Farber, published 2003)
